This note sets out measurements from patent US20110281938, “APTAMERS TO TISSUE FACTOR PATHWAY INHIBITOR AND THEIR USE AS BLEEDING DISORDER THERAPEUTICS” (Baxter Healthcare S.A., published 2011).

Series [1] deals with alpha-1 antitrypsin (serpin-A1) (UniProt P01009 P01009:25-418). As to the kind of experiment: filter; no significant affinity up to 0.5-1 uM. The note with it: label: radiolabel.
The target in the next series is alpha-Thrombin (UniProt P00734;P00734 P00734:328-363,P00734:364-622). As to the kind of experiment: filter; no significant affinity up to 0.5-1 uM.
The next series deals with Factor XIa (UniProt P03951;P03951 P03951:19-387,P03951:388-625). As to the kind of experiment: filter; no significant affinity up to 0.5-1 uM. The note with it: chain copies: 2; label: radiolabel.
The target in another series is Factor IXa (UniProt P00740;P00740 P00740:47-191,P00740:227-461). As to the kind of experiment: filter; no significant affinity up to 0.5-1 uM. The note with it: label: radiolabel.
The target of a further series is Prothrombin (UniProt P00734 P00734:44-622). As to the kind of experiment: filter; no significant affinity up to 0.5-1 uM. The note with it: label: radiolabel.
A further series addresses Factor Va (UniProt P12259;P12259 P12259:29-737,P12259:1574-2224). As to the kind of experiment: filter; no significant affinity up to 0.5-1 uM. Particulars: label: radiolabel.
Another series concerns the target Plasmin (UniProt P00747;P00747 P00747:97-580,P00747:581-810). As to the kind of experiment: filter; no significant affinity up to 0.5-1 uM. The note with it: label: radiolabel.
The next series deals with T1, Heparin cofactor II (UniProt P05546 P05546:20-499).
T1 sequence: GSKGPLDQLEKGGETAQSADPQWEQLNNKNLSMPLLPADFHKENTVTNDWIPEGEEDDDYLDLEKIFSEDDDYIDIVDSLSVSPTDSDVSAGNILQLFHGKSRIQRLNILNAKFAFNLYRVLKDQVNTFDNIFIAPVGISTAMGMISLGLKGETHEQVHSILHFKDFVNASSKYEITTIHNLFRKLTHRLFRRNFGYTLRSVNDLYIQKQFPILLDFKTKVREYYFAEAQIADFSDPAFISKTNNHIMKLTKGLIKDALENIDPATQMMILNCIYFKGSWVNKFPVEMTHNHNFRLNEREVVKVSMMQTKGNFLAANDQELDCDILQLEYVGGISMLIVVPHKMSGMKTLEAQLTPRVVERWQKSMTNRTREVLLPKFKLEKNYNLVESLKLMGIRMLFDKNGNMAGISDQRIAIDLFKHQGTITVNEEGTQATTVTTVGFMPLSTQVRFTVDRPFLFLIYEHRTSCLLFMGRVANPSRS
As to the kind of experiment: filter; no significant affinity up to 0.5-1 uM. The note with it: label: radiolabel.

The target of the next series is T2, TFPI-2 (UniProt P48307 P48307:23-235).
T2 sequence: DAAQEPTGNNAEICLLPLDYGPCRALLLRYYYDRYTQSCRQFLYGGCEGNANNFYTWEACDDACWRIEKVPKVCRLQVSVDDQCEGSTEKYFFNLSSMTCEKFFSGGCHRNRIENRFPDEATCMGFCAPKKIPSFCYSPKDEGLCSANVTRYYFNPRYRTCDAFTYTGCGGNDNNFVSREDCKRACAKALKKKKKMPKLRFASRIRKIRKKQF
As to the kind of experiment: filter; no significant affinity up to 0.5-1 uM. Particulars: label: radiolabel.

For the next series, the target named is Kallikrein (UniProt P03952;P03952 P03952:20-390,P03952:391-638). As to the kind of experiment: filter; no significant affinity up to 0.5-1 uM. The note with it: label: radiolabel.
A further series deals with Antithrombin (ATIII) (UniProt P01008 P01008:33-464). As to the kind of experiment: filter; no significant affinity up to 0.5-1 uM. Particulars: label: radiolabel.
The target of the next series is Factor Xa (UniProt P00742;P00742 P00742:41-179,P00742:235-488). As to the kind of experiment: filter; no significant affinity up to 0.5-1 uM. The note with it: label: radiolabel.
The next series addresses Factor VIIa (UniProt P08709;P08709 P08709:61-212,P08709:213-466). As to the kind of experiment: filter; no significant affinity up to 0.5-1 uM. The note with it: label: radiolabel.
The target in the next series is Truncated TFPI-K1K2 (UniProt P10646 SEQ:1-161). As to the kind of experiment: filter; no detectable binding up to 500 nM. The note with it: tags: American Diagnostica, E. coli expressed; label: radiolabel. The method, then: Trace amounts of radiolabeled ARC17480 were incubated with different concentrations of truncated TFPI-K1K2 (500 nM-0.008 nM) and the K3-C-terminal domain protein (500 nM-0.7 nM) (Table 1). […] Trace amounts of radiolabeled ARC17480 were incubated with different concentrations of the C-terminal peptide (10 μM-0.17 nM) (Table 1). Neutravidin (˜100 nM monomer) was then added to the binding solution to assist in the capture of aptamer:peptide complexes on a nitrocellulose filter. The amount of radiolabeled aptamer captured on a nitrocellulose filter was quantitated and compared to the total amount of radiolabeled aptamer to generate a binding curve, which is shown in FIG. 17B.

Series [2] concerns the target T3, TFPI (tissue factor pathway inhibitor, full-length) (Homo sapiens, UniProt P10646 SEQ:1-276). As to the kind of experiment: competition; dot-blot, 10 nM TFPI. Particulars: tags: American Diagnostica 4500PC/4900PC, E. coli expressed. The protocol:
The substituted ARC17480 molecules were assayed for binding and function. The assays used for this evaluation were the calibrated automated thrombogram (CAT) assay, a dot-blot binding-competition assay and a FXa activity assay. The results of these assays are summarized in Table 40 and depicted in FIG. 147. A mutation was considered tolerated for activity if it met the criteria of at least two of the three assays that were carried out. Mutations that are tolerated (“yes”) and not tolerated (“no”) are identified in Table 40. The experimental details and the criteria used for each assay are described in the following paragraphs. The molecules described in this example were first tested in the CAT assay and the dot-blot binding-competition assay. In most cases, molecules were only tested in the FXa assay if there was a discrepancy between the results in the CAT assay and the dot-blot binding-competition assay.
Each molecule was evaluated for binding to tissue factor pathway inhibitor (TFPI) in a binding-competition assay. […] The IC₅₀ of each aptamer was compared to the IC₅₀ of ARC17480 that was evaluated in the same experiment. A mutation was considered tolerated in the binding-competition assay if the IC₅₀ of that molecule was not more than 5-fold greater than that of ARC17480 evaluated in the same experiment. […]

Series [3] concerns the target T3, TFPI (tissue factor pathway inhibitor, …). As to the kind of experiment: competition; dot-blot vs radiolabeled ARC17480, 10 nM TFPI. The note with it: tags: American Diagnostica 4500PC/4900PC, E. coli expressed. The method, then:
Each molecule was evaluated for binding to tissue factor pathway inhibitor (TFPI) in a binding-competition assay. For these experiments, 10 nM human TFPI (American Diagnostica, Stamford, Conn., catalog #4500PC) was incubated with trace amounts of radiolabeled ARC17480 and 5000 nM, 1666.67 nM, 555.56 nM, 185.19 nM, 61.73 nM, 20.58 nM, 6.86 nM, 2.29 nM, 0.76 nM or 0.25 nM of unlabeled competitor aptamer. ARC17480 was included as a competitor in every experiment as a control. For each molecule, the percentage of radiolabeled ARC17480 bound at each competitor aptamer concentration was used for analysis. The percentage of radiolabeled ARC17480 bound was plotted as a function of aptamer concentration and fit to the equation y=(max/(1+x/IC₅₀))+int, where y=the percentage of radiolabeled ARC17480 bound, x=the concentration of aptamer, max=the maximum radiolabeled ARC17480 bound, and int=the y-intercept, to generate an IC₅₀ value for binding-competition. The IC₅₀ of each aptamer was compared to the IC₅₀ of ARC17480 that was evaluated in the same experiment. A substitution was considered tolerated in the binding-competition assay if the IC₅₀ of that molecule was not more than 5-fold greater than that of ARC17480 evaluated in the same experiment. Tolerated substitutions are indicated in Table 37 as meeting the assay criteria (“yes”) or not meeting the assay criteria (“no”).

Turning to GGAAUAUACUUGGCUCGUUAGGUGCGUAUAUA (mixed, 2'-OMe A/G/U, 2'-deoxy C, 3' idT) [ARC17480], the binding result (in series [1]; in the series with alpha-Thrombin; with Factor XIa; with Factor IXa; with Prothrombin; with Factor Va) was “no binding” in each case. For the same molecule, the binding result with Plasmin, with Heparin cofactor II, with TFPI-2, with Kallikrein, with Antithrombin (ATIII) and with Factor Xa was “no binding” throughout. In addition, the binding result with Factor VIIa and in the series with Truncated TFPI-K1K2 was “no binding” in each case.

Turning to AGAAUAUACUUGGCUCGUUAGGUGCGUAUAUA (XNA, 2'-OMe except dC9, dC14, dC16, dC25; 3' idT) [ARC34856], the binding signal in [2] is at most 5 fold IC50 vs ARC17480.

Molecule GGAAUAUACUUGGCUCGUUAGGUGCGUAUAUA (XNA, 2'-OMe except dC9, dC16, dC25; 2'-OMe C14; 3' idT) [ARC18539] returned a binding signal in [3] of at most 5 fold IC50 vs ARC17480.
